Measurements from PMC3025356, “Mechanism of the Ca^2+-Dependent Interaction between S100A4 and Tail Fragments of Nonmuscle Myosin Heavy Chain IIA” (Journal of Molecular Biology, 2011).

B1: S100A4 (wild type, full-length) (natural protein)
chain: not shown
notes: S100A4, wild type, called full-length in the NMR experiment with M111; The tag and the vector are not described; also called Mts1; metastasin; source: E. coli BL21(DE3), purified (Ni-NTA, Superdex 75)
B2: M200, C-terminal fragment of human NM-MHC IIA (residues Q1761-E1960) (domain or fragment)
chain: QINTDLNLERSHAQKNENARQQLERQNKELKVKLQEMEGTVKSKYKASITALEAKIAQLEEQLDNETKERQAACKQVRRTEKKLKDVLLQVDDERRNAEQYKDQADKASTRLKQLKRQLEEAEEEAQRANASRRKLQRELEDATETADAMNREISSLKNKLRRGDLPFVVPRRMARKGAGDGSDEEVDGKADGAEAKPAE
modifications: Parallel coiled-coil dimer. N-terminal … tag omitted. The paper prints V1913I, but by its own numbering (D1908-R1923, G1938, G1940, D1941) 1913 is E and the only adjacent Val is V1914, so …
B3: M32 peptide (A1907-G1938 of human nonmuscle myosin heavy chain IIA) (peptide, UniProt P35579-1 1907-1938, looked up)
peptide: Ac-ADAMNREVSSLKNKLRRGDLPFVVPRRMARKG-NH2
notes: nonmuscle myosin heavy chain IIA (NM-MHC IIA), human, residues A1907-G1938; source: synthetic peptide, bought: Peptide 2.0, Inc
B4: M32 myosin peptide (NM-MHC IIA A1907-G1938) (peptide, UniProt P35579-1 1907-1938, looked up)
peptide: Ac-ADAMNREVSSLKNKLRRGDLPFVVPRRMARKG-NH2
notes: as for B3

Legend:
Settings in all cases: both partners purified
[1] = target: B2; test: turbidity; apparent absorbance at 300 nm, manual mixing; 5 μM M200 filaments in 100 mM NaCl, 10 mM Hepes, 0.1 mM Ca2+, pH 7.5, 20 °C; S100A4 added, then EGTA, then Ca2+
[2] = target: B1; test: turbidity; Ca2+ dependence of the turbidity assay of M200 with S100A4; details in Supplementary Data
[3] = target: B1; test: not stated; K0 of Scheme 1: binding in the absence of Ca2+; the experiment behind the limit is not told
[4] = target: B1; test: turbidity; as a12 in the presence of 250 μM M32 or 250 μM M16^N (competition for S100A4)
[5] = target: B1; test: stopped-flow Quin-2 fluorescence (Ca2+ dissociation); S100A4 + Ca2+ premixed with peptide or fragment, mixed with 100 μM Quin-2; 100 mM NaCl, 10 mM Hepes, 100 μM Ca2+, pH 7.5, 20 °C (M16^N also in 20 mM NaCl, 20 mM Tris, 1 mM DTT); apparent
S100A4 (wild type) = target: T1, S100A4 (wild type) (UniProt P26447 1-101); test: stopped-flow Quin-2 fluorescence (Ca2+ dissociation rate constant against [M32]); 10 uM S100A4 with Ca2+ premixed with M32 (0-50 uM), mixed with 100 uM Quin-2; kobs from single exponentials fitted against [M32] to a quadratic binding equation; apparent; legend says conditions as for Fig. 2c (taken as Fig. 5c: 100 mM NaCl, 10 mM Hepes, 100 uM Ca2+, pH 7.5, 20 C)
T1 construct: S100A4, wild type; predominantly a dimer under the conditions of the kinetic analysis; Concentrations are stated per monomer chain; only the Ni-NTA column is told; also called Mts1; metastasin; source: E. coli BL21(DE3), purified (Ni-NTA, Superdex 75 gel filtration)
T1 sequence (P26447 whole entry, one chain of several): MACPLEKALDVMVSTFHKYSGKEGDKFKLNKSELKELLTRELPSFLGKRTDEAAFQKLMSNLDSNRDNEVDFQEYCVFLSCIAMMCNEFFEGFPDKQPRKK

[6] = target: B1; test: stopped-flow Quin-2 fluorescence (Ca2+ dissociation); S100A4 + Ca2+ premixed with peptide or fragment, mixed with 100 μM Quin-2; 100 mM NaCl, 10 mM Hepes, 100 μM Ca2+, pH 7.5, 20 °C (M16^N also in 20 mM NaCl, 20 mM Tris, 1 mM DTT); apparent; remark: listed apart in the source
[7] = target: B1; test: fluorescence polarisation; competition: displacement of F-M16^N (5 μM) from S100A4 (5 μM) by increasing M32 or M16^N, with Ca2+; fit to a competitive single-site model with Kd of F-M16^N fixed at 2 μM
[8] = target: B1; test: as above; remark: listed apart in the source

Binder: B1
stoichiometry N [1]: 2 S100A4 monomer per M200 polypeptide chain

Binder: B2
Kd [2]: ≤ 3 nM | Kd [3]: > 100000 nM | Kd [4]: ~1 nM | koff [5]: < 0.3 s⁻¹

Binder: B3
Kd (S100A4 (wild type)): 440 nM

Binder: B4
Kd [6]: 400 nM | Kd [7]: 3000 nM | Kd [3]: > 100000 nM | KD (model in which one M32 spans two S100A4 monomers) [8]: 1500 nM
